Laboratory results: patent KR20160093503A (dated 2016)

What was measured:
[1] = target: T1, DRS (Aspartyl-tRNA synthetase), purified recombinant (UniProt P14868 1-501, limits assumed); assay: Luminex multiplex bead assay, antigen coupled to beads, relative to CRS
T1 construct: also called 아스파틸-tRNA 합성효소
T1 sequence (looked up): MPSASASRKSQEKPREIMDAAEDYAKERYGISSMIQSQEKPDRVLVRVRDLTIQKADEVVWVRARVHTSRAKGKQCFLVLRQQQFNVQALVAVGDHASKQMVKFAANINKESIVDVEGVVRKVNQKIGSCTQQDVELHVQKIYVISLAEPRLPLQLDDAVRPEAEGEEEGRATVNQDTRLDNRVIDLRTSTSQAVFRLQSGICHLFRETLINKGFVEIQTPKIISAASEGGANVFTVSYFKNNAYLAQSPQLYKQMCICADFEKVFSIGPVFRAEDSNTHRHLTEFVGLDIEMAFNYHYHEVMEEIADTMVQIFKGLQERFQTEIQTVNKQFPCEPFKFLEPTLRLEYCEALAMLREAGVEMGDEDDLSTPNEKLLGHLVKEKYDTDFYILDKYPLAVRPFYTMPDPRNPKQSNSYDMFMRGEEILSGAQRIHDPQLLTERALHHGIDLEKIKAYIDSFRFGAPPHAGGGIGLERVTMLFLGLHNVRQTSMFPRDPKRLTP

[2] = target: T2, EPRS WHEP domain (Glutamyl-prolyl tRNA synthetase), purified recombinant (UniProt P07814 749-956, limits assumed); assay: as above
T2 construct: domain: WHEP domain; also called 글루타밀-프로릴-tRNA 합성효소
T2 sequence (looked up): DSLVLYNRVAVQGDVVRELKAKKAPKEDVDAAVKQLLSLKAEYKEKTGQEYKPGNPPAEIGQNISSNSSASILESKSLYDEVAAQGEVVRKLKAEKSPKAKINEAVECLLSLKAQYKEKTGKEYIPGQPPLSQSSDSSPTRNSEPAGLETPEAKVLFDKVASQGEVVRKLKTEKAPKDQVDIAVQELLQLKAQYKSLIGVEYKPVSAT

[3] = target: T3, WRS (Tryptophanyl-tRNA synthetase), purified recombinant (UniProt P23381 1-471, limits assumed); assay: as above
T3 construct: also called 트립토파닐-tRNA 합성효소
T3 sequence (looked up): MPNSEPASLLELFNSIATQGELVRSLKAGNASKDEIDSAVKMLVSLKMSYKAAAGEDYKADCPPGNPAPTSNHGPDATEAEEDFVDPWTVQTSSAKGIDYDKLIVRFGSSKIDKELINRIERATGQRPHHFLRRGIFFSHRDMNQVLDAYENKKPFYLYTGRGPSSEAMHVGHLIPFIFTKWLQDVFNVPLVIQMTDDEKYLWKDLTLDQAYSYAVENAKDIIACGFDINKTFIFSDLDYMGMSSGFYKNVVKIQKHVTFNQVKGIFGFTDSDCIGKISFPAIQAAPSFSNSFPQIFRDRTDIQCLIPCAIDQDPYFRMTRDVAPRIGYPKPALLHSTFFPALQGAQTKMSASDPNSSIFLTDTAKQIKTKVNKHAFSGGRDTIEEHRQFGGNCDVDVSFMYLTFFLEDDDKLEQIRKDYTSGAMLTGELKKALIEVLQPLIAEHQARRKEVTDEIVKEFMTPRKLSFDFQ

[4] = target: T4, HRS (Histidyl-tRNA synthetase), purified recombinant (UniProt P12081 1-509, limits assumed); assay: as above
T4 construct: also called 히스티딜-tRNA 합성효소
T4 sequence (looked up): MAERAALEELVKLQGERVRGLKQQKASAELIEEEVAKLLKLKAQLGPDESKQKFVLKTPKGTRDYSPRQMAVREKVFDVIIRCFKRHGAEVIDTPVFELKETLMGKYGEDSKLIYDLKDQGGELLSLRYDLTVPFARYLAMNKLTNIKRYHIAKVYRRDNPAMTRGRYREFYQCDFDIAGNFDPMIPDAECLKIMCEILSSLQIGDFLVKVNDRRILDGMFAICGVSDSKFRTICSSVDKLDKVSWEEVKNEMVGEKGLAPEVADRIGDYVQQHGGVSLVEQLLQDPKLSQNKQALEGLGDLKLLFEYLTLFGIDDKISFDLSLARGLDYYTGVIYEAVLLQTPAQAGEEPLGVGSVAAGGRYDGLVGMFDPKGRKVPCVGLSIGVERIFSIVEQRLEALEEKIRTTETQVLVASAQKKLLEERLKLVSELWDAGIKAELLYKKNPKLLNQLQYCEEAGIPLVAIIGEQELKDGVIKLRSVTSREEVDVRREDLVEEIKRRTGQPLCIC

[5] = target: T5, AIMP1 (Aminoacyl-tRNA-synthetase-interacting multifunctional protein 1), purified recombinant (UniProt Q12904 1-312, limits assumed); assay: as above
T5 construct: also called AIMP1(p43); p43
T5 sequence (looked up): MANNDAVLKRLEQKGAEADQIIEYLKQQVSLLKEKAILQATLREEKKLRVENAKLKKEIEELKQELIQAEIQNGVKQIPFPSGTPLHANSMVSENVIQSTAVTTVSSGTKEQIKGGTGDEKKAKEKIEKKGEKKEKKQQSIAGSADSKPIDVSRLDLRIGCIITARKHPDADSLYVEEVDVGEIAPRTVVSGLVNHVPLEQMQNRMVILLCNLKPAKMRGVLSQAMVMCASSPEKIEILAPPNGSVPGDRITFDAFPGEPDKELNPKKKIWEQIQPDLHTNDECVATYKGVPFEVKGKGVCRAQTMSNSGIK

[6] = target: T6, AIMP3 (Aminoacyl-tRNA-synthetase-interacting multifunctional protein 3), purified recombinant (UniProt O43324 1-174, limits assumed); assay: as above
T6 construct: also called AIMP3(p18); p18
T6 sequence (looked up): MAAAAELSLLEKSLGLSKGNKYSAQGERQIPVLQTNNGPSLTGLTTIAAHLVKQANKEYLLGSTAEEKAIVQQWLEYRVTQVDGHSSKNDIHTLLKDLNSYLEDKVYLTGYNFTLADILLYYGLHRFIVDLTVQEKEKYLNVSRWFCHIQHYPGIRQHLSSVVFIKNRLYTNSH

[7] = target: T7, CRS (Cysteinyl-tRNA synthetase), purified recombinant antigen (human, UniProt P49589 1-748, limits assumed); assay: SPR (ProteOn XPR36), CRS amine-coupled on GLC chip, scFv 500-30 nM as analyte, 25 C
T7 construct: also called CRS 항원; 재조합 CRS 표준물질
T7 sequence (looked up): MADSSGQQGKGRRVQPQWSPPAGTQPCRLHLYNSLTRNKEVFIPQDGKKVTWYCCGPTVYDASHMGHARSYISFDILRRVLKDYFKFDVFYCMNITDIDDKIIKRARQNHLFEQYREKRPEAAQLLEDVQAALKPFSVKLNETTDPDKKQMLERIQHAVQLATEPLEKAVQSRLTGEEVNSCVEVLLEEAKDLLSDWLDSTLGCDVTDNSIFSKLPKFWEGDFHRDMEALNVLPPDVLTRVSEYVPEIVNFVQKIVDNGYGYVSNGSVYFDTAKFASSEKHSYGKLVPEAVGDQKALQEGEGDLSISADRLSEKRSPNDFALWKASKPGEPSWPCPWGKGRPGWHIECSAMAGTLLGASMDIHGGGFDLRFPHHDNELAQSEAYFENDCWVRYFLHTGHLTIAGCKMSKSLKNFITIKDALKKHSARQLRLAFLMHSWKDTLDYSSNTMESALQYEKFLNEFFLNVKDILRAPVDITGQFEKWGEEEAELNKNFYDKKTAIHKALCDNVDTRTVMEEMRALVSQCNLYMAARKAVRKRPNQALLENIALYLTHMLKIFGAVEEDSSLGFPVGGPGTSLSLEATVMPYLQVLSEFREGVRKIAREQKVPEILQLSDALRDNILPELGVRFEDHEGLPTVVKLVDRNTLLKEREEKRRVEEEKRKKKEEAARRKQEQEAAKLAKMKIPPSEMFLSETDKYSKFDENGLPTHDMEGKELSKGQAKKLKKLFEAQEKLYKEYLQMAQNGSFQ

B1: anti-CRS scFv Biocon-K1 (scFv)
scFv: EVQLLESGGGLVQPVGSLRLSCAASGFTFSNYAMSWVRQAPGKGLEWVSWIYSKGRSTYYGDSAKGRFTISRDNSKNTLYLQMNSLRAEDTAVYYCAKRDNAFDYWGQGTLVTVSSGGGGSGGGGSGGGGSQSVLTQPPSASGTPGQRVTISCSGSSSNIGNNYVYWYQQLPGTAPKLLIYADSQRPSGVPDRFSGSKSGTSASLAISGLRSEDEADYYCGAWDSSLNGYVFGGGTKLTVL
notes: It was expressed from pComb3X in the E. coli periplasm, purified on Ni-NTA and detected with anti-HA; Human VH3-23/VL1g framework; also called 항 CRS scFv 항체; 본 발명의 항체
[1]
  교차 반응성 (cross-reactivity): ≤ 10%
[2]
  교차 반응성 (cross-reactivity): ≤ 10%
[3]
  교차 반응성 (cross-reactivity): ≤ 10%
[4]
  교차 반응성 (cross-reactivity): ≤ 10%
[5]
  교차 반응성 (cross-reactivity): ≤ 10%
[6]
  교차 반응성 (cross-reactivity): ≤ 10%
[7]
  Kd: 60 nM
